According to publication PMC2812517 (The Journal of Cell Biology, 2010):

Target: GST-LC3B (UniProt Q9GZQ8 1-120)
Assay: pull-down

B1: MBP-FYCO1(863–1,478) (domain or fragment)
chain: AQQREEELRALQEELSQAKCSSEEAQLEHAELQEQLHRANTDTAELGIQVCALTVEKERVEEALACAVQELQDAKEAASREREGLERQVAGLQQEKESLQEKLKAAKAAAGSLPGLQAQLAQAEQRAQSLQEAAHQELNTLKFQLSAEIMDYQSRLKNAGEECKSLRGQLEEQGRQLQAAEEAVEKLKATQADMGEKLSCTSNHLAECQAAMLRKDKEGAALREDLERTQKELEKATTKIQEYYNKLCQEVTNRERNDQKMLADLDDLNRTKKYLEERLIELLRDKDALWQKSDALEFQQKLSAEERWLGDTEANHCLDCKREFSWMVRRHHCRICGRIFCYYCCNNYVLSKHGGKKERCCRACFQKLSEGPGSPDSSGSGTSQGEPSPALSPASPGPQATGGQGANTDYRPPDDAVFDIITDEELCQIQESGSSLPETPTETDSLDPNAAEQDTTSTSLTPEDTEDMPVGQDSEICLLKSGELMIKVPLTVDEIASFGEGSRELFVRSSTYSLIPITVAEAGLTISWVFSSDPKSISFSVVFQEAEDTPLDQCKVLIPTTRCNSHKENIQGQLKVRTPGIYMLIFDNTFSRFVSKKVFYHLTVDRPVIYDGSDFL
Question: Does B1 bind?
Answer: Result: binds
